B1: Tissue-type plasminogen activator, P00750 (parent)
chain: MDAMKRGLCCVLLLCGAVFVSPSQEIHARFRRGARSYQVICRDEKTQMIYQQHQSWLRPVLRSNRVEYCWCNSGRAQCHSVPVKSCSEPRCFNGGTCQQALYFSDFVCQCPEGFAGKCCEIDTRATCYEDQGISYRGTWSTAESGAECTNWNSSALAQKPYSGRRPDAIRLGLGNHNYCRNPDRDSKPWCYVFKAGKYSSEFCSTPACSEGNSDCYFGNGSAYRGTHSLTESGASCLPWNSMILIGKVYTAQNPSAQALGLGKHNYCRNPDGDAKPWCHVLKNRRLTWEYCDVPSCSTCGLRQYSQPQFRIKGGLFADIASHPWQAAIFAKHRRSPGERFLCGGILISSCWILSAAHCFQERFPPHHLTVILGRTYRVVPGEEEQKFEVEKYIVHKEFDDDTYDNDIALLQLKSDSSRCAQESSVVRTVCLPPADLQLPDWTECELSGYGKHEALSPFYSERLKEAHVRLYPSSRCTSQHLLNRTVTDNMLCAGDTRSGGPQANLHDACQGDSGGPLVCLNDGRMTLVGIISWGLGCGQKDVPGVYTKVTNYLDWIRDNMRP

Variants of: B1
Conditions: Homo sapiens; pH 8; Thermal; DSC; Tris - Oac/100mM NaOAc 50 mM; transition: 2; structure 1PML; whole UniProt chain shown
With Y290F the Tm was 81.5 °C and the “change of melting temperature, mutant - wild type (higher = more stable)” value was 14.8 °C.

Source: FireProtDB (doi:10.1021/bi00178a007)
